Patent publication US20190016771A1 (Hoffmann-La Roche, published 2019)

Tests used:
[1] = target: T1, human fibroblast activation protein (FAP) on the cell surface (human, UniProt Q12884 1-760); assay: flow cytometry on 3T3-huFAP clone 39 cells, detection with FITC-labelled anti-huIgG (H+L) goat IgG F(ab)2, MFI baseline corrected
T1 construct: also called huFAP; NIH/3T3-huFAP clone 39 cells
T1 sequence: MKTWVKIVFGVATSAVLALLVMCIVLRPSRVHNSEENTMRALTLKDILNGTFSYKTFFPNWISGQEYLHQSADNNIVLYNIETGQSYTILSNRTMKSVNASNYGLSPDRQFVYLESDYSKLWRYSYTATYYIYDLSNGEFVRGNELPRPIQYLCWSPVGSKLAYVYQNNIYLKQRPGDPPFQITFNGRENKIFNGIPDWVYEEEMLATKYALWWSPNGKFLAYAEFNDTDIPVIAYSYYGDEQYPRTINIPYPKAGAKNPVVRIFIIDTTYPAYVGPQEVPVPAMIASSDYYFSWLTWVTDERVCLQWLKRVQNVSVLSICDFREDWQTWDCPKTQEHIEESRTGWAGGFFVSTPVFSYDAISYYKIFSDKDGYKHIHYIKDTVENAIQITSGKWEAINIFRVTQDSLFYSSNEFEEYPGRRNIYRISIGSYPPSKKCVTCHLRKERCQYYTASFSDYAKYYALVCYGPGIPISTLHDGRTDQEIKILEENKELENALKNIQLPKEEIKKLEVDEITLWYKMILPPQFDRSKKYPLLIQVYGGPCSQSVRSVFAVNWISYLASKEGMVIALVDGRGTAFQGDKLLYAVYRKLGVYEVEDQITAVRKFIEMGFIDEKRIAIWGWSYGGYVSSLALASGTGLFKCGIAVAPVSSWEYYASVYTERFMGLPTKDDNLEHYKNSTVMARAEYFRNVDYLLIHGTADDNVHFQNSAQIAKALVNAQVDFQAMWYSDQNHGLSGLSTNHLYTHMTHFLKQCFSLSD
Description: For binding assays on FAP expressing cells, the NIH/3T3-huFAP clone 39 cell line was used. To generate this cell line, NIH/3T3 cells were transfected with human FAP (NIH/3T3-huFAP clone 39). The cells were generated by transfection of mouse embryonic fibroblast NIH/3T3 cells (ATCC CRL-1658) with the expression pETR4921 plasmid encoding human FAP under a CMV promoter. Cells were maintained in the presence of 1.5 μg/mL puromycin (InvivoGen, Cat.-No.: ant-pr-5). 0.1×10⁶ of FAP expressing tumor cells were added to each well of a round-bottom suspension cell 96-well plates (Greiner bio-one, cellstar, Cat.-No. 650185). Cells were washed once with 200 μL/well 4° C. cold FACS buffer and resuspended in 50 μL/well of 4° C. cold FACS buffer containing different concentrations of titrated FAP-targeted or DP47-targeted CMP-trimeric 4-1BB ligand-containing antigen binding molecule. Resuspended cells were incubated for 2 hour at 4° C. […] Cells were washed twice with 200 μL/well cold FACS buffer and resuspended in 100 μL/well FACS buffer containing 0.2 μg/mL DAPI (Santa Cruz Biotec, Cat. No. Sc-3598) and acquired the same day using a 5-laser LSR-Fortessa (BD Bioscience with DIVA software).

[2] = target: T2, human 4-1BB (CD137) on the cell surface (human, UniProt Q07011 24-255); assay: flow cytometry on activated human CD8+ T cells (PBMC), detection with PE-labelled anti-human IgG F(ab')2-specific goat F(ab')2, median fluorescence, baseline corrected
T2 construct: whole, on cells; also called HeLa-huCD137-NF-kB-luciferase reporter cells
T2 sequence (Q07011 24-255): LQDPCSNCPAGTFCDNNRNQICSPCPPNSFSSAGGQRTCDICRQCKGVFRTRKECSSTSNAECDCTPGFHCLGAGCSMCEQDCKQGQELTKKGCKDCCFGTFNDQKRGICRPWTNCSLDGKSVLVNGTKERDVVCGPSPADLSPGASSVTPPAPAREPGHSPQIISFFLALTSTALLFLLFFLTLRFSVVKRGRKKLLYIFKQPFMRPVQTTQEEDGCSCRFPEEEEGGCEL
Description: Plates were centrifuged 4 minutes with 400×g and at 4° C. and supernatant was discarded. If cells were fixed before acquisition by flow cytometry they were washed once with 200 μL/well DPBS and then stained for 30 min at 4° C. with […] DPBS containing 1:1000 diluted LIVE/DEAD Fixable Aqua Dead Cell Stain (Life technologies, Molecular Probes, Cat-No.: L34957). If cells were acquired the same day and DAPI was used to discriminate dead cells this staining step was skipped. Afterwards cells were washed once with 200 μL cold FACS buffer (DPBS supplied with 2% (v/v) FBS, 5 mM EDTA pH8 (Amresco, Cat. No. E177) and 7.5 mM sodium azide (Sigma-Aldrich S2002)). Next, 50 μL/well of 4° C. cold FACS buffer containing FAP-targeted CMP trimeric 4-1BB ligand-containing antigen binding molecule, DP47-targeted CMP trimeric 4-1BB ligand-containing antigen binding molecule or not-specific binding huIgG1 P329G LALA control antibody were added and cells were incubated for 120 minutes at 4° C. Cells were washed four times with 200 μL/well 4° C. FACS buffer. […]

EC50 (read off the curve) [1]: ~2 nM
EC50 (read off the curve) [2]: ~0.6 nM
B1: FAP(28H1)-targeted hu CMP (CMPtd) trimeric human 4-1BBL(71-254)-containing antigen binding molecule (other)
chain: EVQLLESGGGLVQPGGSLRLSCAASGFTFSSHAMSWVRQAPGKGLEWVSAIWASGEQYYADSVKGRFTISRDNSKNTLYLQMNSLRAEDTAVYYCAKGWLGNFDYWGQGTLVTVSSASTKGPSVFPLAPSSKSTSGGTAALGCLVKDYFPEPVTVSWNSGALTSGVHTFPAVLQSSGLYSLSSVVTVPSSSLGTQTYICNVNHKPSNTKVDKKVEPKSCDGGGGSGGGGSEEDPCACESLVKFQAKVEGLLQALTRKLEAVSKRLAILENTVVSGGGGSGGGGSGGGGSGGGGSREGPELSPDDPAGLLDLRQGMFAQLVAQNVLLIDGPLSWYSDPGLAGVSLTGGLSYKEDTKELVVAKAGVYYVFFQLELRRVVAGEGSGSVSLALHLQPLRSAAGAAALALTVDLPPASSEARNSAFGFQGRLLHLSAGQRLGVHLHTEARARHAWQLTQGATVLGLFRVTPEIPAGLPSPRSE
light: EIVLTQSPGTLSLSPGERATLSCRASQSVSRSYLAWYQQKPGQAPRLLIIGASTRATGIPDRFSGSGSGTDFTLTISRLEPEDFAVYYCQQGQVIPPTFGQGTKVEIKRTVAAPSVFIFPPSDEQLKSGTASVVCLLNNFYPREAKVQWKVDNALQSGNSQESVTEQDSKDSTYSLSSTLTLSKADYEKHKVYACEVTHQGLSSPVTKSFNRGEC
notes: Three fusion chains are covalently linked by disulfides of the huCMP trimerization domain; each pairs with one light chain to form a Fab; also called trimeric FAP-huCMP-4-1BBL
